From patent US20210221863A1 (Innovent, published 2021)
Numbering of substitutions follows the chain as printed. Like-named read-outs stand apart in the source and are kept apart here. One block for each binder: values may come before it.

Key:
[1] = target: T1, IL-2Rα (CD25) on primary human CD8^+ CD25^+ T cells (human, UniProt P01589 22-272); assay: cell-based or functional assay
T1 sequence (looked up): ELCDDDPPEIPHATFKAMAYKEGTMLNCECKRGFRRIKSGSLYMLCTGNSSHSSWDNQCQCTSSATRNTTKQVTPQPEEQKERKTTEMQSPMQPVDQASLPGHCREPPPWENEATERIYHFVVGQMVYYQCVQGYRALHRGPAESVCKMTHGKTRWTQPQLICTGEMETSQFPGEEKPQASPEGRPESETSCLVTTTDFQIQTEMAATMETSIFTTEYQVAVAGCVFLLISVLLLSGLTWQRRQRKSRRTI

[2] = target: T1, IL-2Rα (CD25) on primary human CD8^+ …; assay: cell-based or functional assay; remark: listed apart in the source
IL-2Rα-Biotin [3] = target: T2, IL-2Rα-Biotin (Homo sapiens (Human), UniProt P01589 22-217, biotin on the avi tag (enzymatic labeling with His-BirA)); assay: BLI (Octet Red96): biotinylated receptor on SA sensor, 100 nM Fc fusion in solution
T2 construct: also called CD25; IL-2Rα receptor
T2 sequence: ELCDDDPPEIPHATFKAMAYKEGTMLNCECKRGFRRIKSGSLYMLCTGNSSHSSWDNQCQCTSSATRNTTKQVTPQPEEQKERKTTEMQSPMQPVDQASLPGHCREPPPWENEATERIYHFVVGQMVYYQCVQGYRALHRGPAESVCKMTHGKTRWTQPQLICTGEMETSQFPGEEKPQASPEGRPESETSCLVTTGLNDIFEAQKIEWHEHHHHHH

IL-2Rβ IH-Biotin [4] = target: T3, IL-2Rβ IH-Biotin (Homo sapiens (Human), UniProt P14784 27-240, biotin on the avi tag (enzymatic labeling with His-BirA)); assay: BLI (Octet Red96): biotinylated receptor on SA sensor, 100 nM Fc fusion in solution, 1:1 model
T3 construct: also called IL-2Rβ IH (in house); CD122
T3 sequence: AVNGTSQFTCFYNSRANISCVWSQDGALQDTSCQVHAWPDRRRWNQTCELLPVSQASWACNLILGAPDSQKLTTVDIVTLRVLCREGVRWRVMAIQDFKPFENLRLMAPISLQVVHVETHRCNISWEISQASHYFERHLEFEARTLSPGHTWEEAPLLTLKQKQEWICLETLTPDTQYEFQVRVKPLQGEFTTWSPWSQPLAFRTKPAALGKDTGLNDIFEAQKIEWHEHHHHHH
Procedure: A BLI affinity assay was performed according to the prior art (Estep, P, et al., High throughput solution based measurement of antibody-antigen affinity and epitope binning. MAbs, 2013.5(2): p. 270-8). […] Kinetic analysis was performed on the assay results using a 1:1 binding model.

IL-2Rα-Biotin [5] = target: T2, IL-2Rα-Biotin; assay: flow cytometry: yeast-displayed IL-2 stained with 50 nM IL-2Rα-Biotin
Procedure: (§1) 1. 1×10⁶ cells from each sample were centrifuged to discard the supernatant, and washed with FACS buffer once for later use; [0133] 2. the cells were added to 100 μL of FACS buffer containing 50 nM IL-2Rα-Biotin and Anti Flag antibody, and incubated at room temperature for 30 min; [0134] 3. the mixture was centrifuged at 3000 rpm, 4° C. for 3 min, and washed with pre-cooled FACS buffer twice; [0135] 4. 100 μL of FACS buffer containing SA-PE and goat anti-mouse conjugated with Alex Flour-647 was added, and the mixture was incubated on ice for 20 min away from light; [0136] 5. after being washed twice with pre-cooled FACS buffer, the cells were resuspended in 100 μL of buffer, and the binding level of IL-2^mutant to IL-2Rα was assayed by a flow cytometer (BD, ACCURI C6). […] 1. […] 2. the cells were added to 100 μL of FACS buffer containing IL-2Rβ IH-Biotin (30 nM-100 nM) and Anti Flag antibody, and incubated at room temperature for 30 min; [0139] 3. following steps 3-5 described above, the binding level of IL-2^mutant to IL-2Rβ was assayed.

IL-2Rβ IH-Biotin [6] = target: T3, IL-2Rβ IH-Biotin; assay: flow cytometry: yeast-displayed IL-2 stained with IL-2Rβ IH-Biotin (30 nM-100 nM)
Procedure: as §1

EC50 (read off the curve) of p-STAT5 activation [1]: ~6 nM
EC50 (read off the curve) of p-STAT5 activation [2]: ~7 nM
binding result (IL-2Rα-Biotin [3]): no binding (tested: 100 nM)
Kd (IL-2Rβ IH-Biotin [4]): 16 nM
B1: IL-2^3X-FC fusion protein (Fc fusion, not shown: small tags and cut ends; a dimerising Fc or GST)
chain: APTSSSTKKTQLQLEHLLLDLQMILNGINNYKNPKLTDMLTFEFYMPKKATELKHLQCLERELKPLEEVLNLAQSKNFHLRPRDLISNINVIVLELKGSETTFMCEYADETATIVEFLNRWITFSQSIISTLT

binding result (IL-2Rα-Biotin [5]): no binding (tested: 50 nM)
B2: IL-2^3x displayed on the surface of yeasts (ligand, not shown: small tags and cut ends)
chain: B1 chain
notes: Control on yeast cells

binding result (IL-2Rβ IH-Biotin [6]): binds
B3: IL-2^H9 displayed on the surface of yeasts (ligand, not shown: small tags and cut ends)
chain: B1 chain with D38R, E43K, R61E, L80F, R81D, L85V, I86V, I92F
notes: Control on yeast cells
